The values below come from article doi:10.1101/2025.05.07.652675 (bioRxiv, 2025).

Changes are numbered by the printed parent chain. Numbers in names are those of the source.

T1: SUMO-FtsZ (6×His-SUMO fusion of full length FtsZ) (E. coli, UniProt P0A9A6 1-383)
T1 sequence: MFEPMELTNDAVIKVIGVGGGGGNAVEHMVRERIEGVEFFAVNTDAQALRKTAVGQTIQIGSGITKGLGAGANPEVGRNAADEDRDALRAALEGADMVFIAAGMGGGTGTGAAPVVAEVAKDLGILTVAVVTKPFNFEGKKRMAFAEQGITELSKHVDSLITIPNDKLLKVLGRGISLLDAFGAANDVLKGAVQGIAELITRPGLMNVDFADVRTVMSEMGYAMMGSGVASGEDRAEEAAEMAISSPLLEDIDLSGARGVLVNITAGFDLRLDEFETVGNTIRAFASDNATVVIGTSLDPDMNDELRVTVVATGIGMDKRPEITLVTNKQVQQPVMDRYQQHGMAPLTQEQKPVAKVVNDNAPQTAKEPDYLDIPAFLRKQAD

B1: FtsZ (wild type, untagged) (natural protein)
chain: T1 sequence
B2: FtsZ^I323L (untagged) (natural protein)
chain: T1 sequence with I323L
B3: FtsZ^A376T (untagged) (natural protein)
chain: T1 sequence with A376T
B4: FtsZ^F285S (untagged) (natural protein)
chain: T1 sequence with F285S
B5: FtsZ^D360Y (untagged) (natural protein)
chain: T1 sequence with D360Y
B6: SUMO-FtsZ^316-383 (domain or fragment)
chain: GMDKRPEITLVTNKQVQQPVMDRYQQHGMAPLTQEQKPVAKVVNDNAPQTAKEPDYLDIPAFLRKQAD
B7: 6×His-ZapC (natural protein)
chain: not shown
B8: FtsZ^1-370 (domain or fragment)
chain: MFEPMELTNDAVIKVIGVGGGGGNAVEHMVRERIEGVEFFAVNTDAQALRKTAVGQTIQIGSGITKGLGAGANPEVGRNAADEDRDALRAALEGADMVFIAAGMGGGTGTGAAPVVAEVAKDLGILTVAVVTKPFNFEGKKRMAFAEQGITELSKHVDSLITIPNDKLLKVLGRGISLLDAFGAANDVLKGAVQGIAELITRPGLMNVDFADVRTVMSEMGYAMMGSGVASGEDRAEEAAEMAISSPLLEDIDLSGARGVLVNITAGFDLRLDEFETVGNTIRAFASDNATVVIGTSLDPDMNDELRVTVVATGIGMDKRPEITLVTNKQVQQPVMDRYQQHGMAPLTQEQKPVAKVVNDNAPQTAKEPD
B9: ZapC (untagged) (natural protein)
chain: not shown

Data set [1] concerns the molecule itself. In words: sedimentation of polymers by ultracentrifugation.
In data set [2] the target is 6×His-ZapC F30D K94D double mutant (E. coli, UniProt P75862 1-180, F30D | K94D). In words: BLI. A general note: Biolayer interferometry detects binding as a change in optical thickness at a sensor tip.
Data set [3] concerns the molecule itself. In words: negative stain electron microscopy.
For data set [4], the target named is B9. Kind of data set: BLI.
Data set [5] concerns the target B2. In words: co-sedimentation.
Data set [6] deals with B3. In words: co-sedimentation.
Data set [7] concerns the target B5. Kind of data set: co-sedimentation.
The target in data set [8] is B4. Kind of data set: BLI.
The target in data set [9] is B1. Kind of data set: BLI.
For data set [10], the target named is B7. In words: BLI.
Data set [11] concerns the target T1, SUMO-FtsZ (6×His-SUMO fusion of full …). In words: BLI.

Regarding B1, the binding result in data set [1] was “binds”. For the same molecule, the “Kd relative to wild-type ZapC (times higher)” value in [2] was 12 times. As to B2, the binding result in data set [3] is “binds”.

B3: the binding result in [3] is listed as “binds”.

Regarding B4, the binding result in [1] is “binds”. B5: the binding result in data set [3] is on record as “binds”. In data set [4], B6 had a Kd of 10 µM. Take B7: the binding result in data set [5], in data set [6] and in data set [7] was “binds” each time. Moreover, the values for the equilibrium dissociation constant (Kd) in data set [8] and in [9] were 6.37 µM and 0.39 µM, respectively.

Take B8: in data set [10], the “binding affinity relative to wild-type FtsZ (fold lower)” value was roughly 3 fold. Turning to B9, the Kd in [11] was found to be 1.5 µM.

By Kd is commonly meant the concentration at which binding is half-saturated. Low values mean a tighter complex, high ones a looser complex.
